Test results: paper PMC4015189 (Cell, 2014)
Values belong to the binder of their own block, whether it stands above or below them.

Columns and labels:
microtubules = experiment: single-molecule TIRF microscopy
light scattering = biological target: the molecule itself; experiment: light scattering
SEC = biological target: the molecule itself; experiment: SEC

B2: NuMA NTD (domain or fragment, human, UniProt Q14980 1-400, looked up)
chain: MTLHATRGAALLSWVNSLHVADPVEAVLQLQDCSIFIKIIDRIHGTEEGQQILKQPVSERLDFVCSFLQKNRKHPSSPECLVSAQKVLEGSELELAKMTMLLLYHSTMSSKSPRDWEQFEYKIQAELAVILKFVLDHEDGLNLNEDLENFLQKAPVPSTCSSTFPEELSPPSHQAKREIRFLELQKVASSSSGNNFLSGSPASPMGDILQTPQFQMRRLKKQLADERSNRDELELELAENRKLLTEKDAQIAMMQQRIDRLALLNEKQAASPLEPKELEELRDKNESLTMRLHETLKQCQDLKTEKSQMDRKINQLSEENGDLSFKLREFASHLQQLQDALNELTEEHSKATQEWLEKQAQLEKELSAALQDKKCLEEKNEILQGKLSQLEEHLSQLQDN
stoichiometry N (light scattering): 2

B3: EB1-GFP (natural protein, human, UniProt Q15691 1-268, looked up)
chain: MAVNVYSTSVTSDNLSRHDMLAWINESLQLNLTKIEQLCSGAAYCQFMDMLFPGSIALKKVKFQAKLEHEYIQNFKILQAGFKRMGVDKIIPVDKLVKGKFQDNFEFVQWFKKFFDANYDGKDYDPVAARQGQETAVAPSLVAPALNKPKKPLTSSSAAPQRPISTQRTAAAPKAGPGVVRKNPGVGNGDDEAAELMQQVNVLKLTVEDLEKERDFYFGKLRNIELICQENEGENDPVLQRIVDILYATDEGFVIPDEGGPQEEQEEY
binding lifetime (microtubules): 1.2 ± 0.2 s

Further lines, with some results ahead:

binding lifetime (microtubules): 2.8 ± 0.2 s
B1: NuMA-tail II-GFP (domain or fragment, human, UniProt Q14980 1868-2091, looked up)
chain: SALLSLPGYRPTTRSSARRSQAGVSSGAPPGRNSFYMGTCQDEPEQLDDWNRIAELQQRNRVCPPHLKTCYPLESRPSLSLGTITDEEMKTGDPQETLRRASMQPIQIAEGTGITTRQQRKRVSLEPHQGPGTPESKKATSCFPRPMTPRDRHEGRKQSTTEAQKKAAPASTKQADRRQSMAFSILNTPKKLGNSLLRRGASKKALSKASPNTRSGTRRSPRIA

binding lifetime (microtubules): 3.6 ± 0.2 s
B4: NuMA-bonsai-tail II-GFP (other, human, UniProt Q14980 1-400, looked up)
chain: MTLHATRGAALLSWVNSLHVADPVEAVLQLQDCSIFIKIIDRIHGTEEGQQILKQPVSERLDFVCSFLQKNRKHPSSPECLVSAQKVLEGSELELAKMTMLLLYHSTMSSKSPRDWEQFEYKIQAELAVILKFVLDHEDGLNLNEDLENFLQKAPVPSTCSSTFPEELSPPSHQAKREIRFLELQKVASSSSGNNFLSGSPASPMGDILQTPQFQMRRLKKQLADERSNRDELELELAENRKLLTEKDAQIAMMQQRIDRLALLNEKQAASPLEPKELEELRDKNESLTMRLHETLKQCQDLKTEKSQMDRKINQLSEENGDLSFKLREFASHLQQLQDALNELTEEHSKATQEWLEKQAQLEKELSAALQDKKCLEEKNEILQGKLSQLEEHLSQLQDNSALLSLPGYRPTTRSSARRSQAGVSSGAPPGRNSFYMGTCQDEPEQLDDWNRIAELQQRNRVCPPHLKTCYPLESRPSLSLGTITDEEMKTGDPQETLRRASMQPIQIAEGTGITTRQQRKRVSLEPHQGPGTPESKKATSCFPRPMTPRDRHEGRKQSTTEAQKKAAPASTKQADRRQSMAFSILNTPKKLGNSLLRRGASKKALSKASPNTRSGTRRSPRIA
stoichiometry N (SEC): 2
